Experimental data published in WO2010106812A1 (dated 2010).
Substitutions are numbered along the chain they refer to.

B1: TOCILIZUMAB-M58 (antibody, IgG2)
heavy: QVQLQESGPGLVRPSQTLSLTCTVSGYSITSDHAWSWVRQPPGRGLEWIGYISYSGITTYNPSLKSRVTMLRDTSKNQFSLRLSSVTAADTAVYYCARSLARTTAMDYWGQGSLVTVSSASTKGPSVFPLAPSSKSTSGGTAALGCLVKDYFPEPVTVSWNSGALTSGVHTFPAVLQSSGLYSLSSVVTVPSSNFGTQTYTCNVDHKPSNTKVDKTVERKSCVECPPCPAPPVAGPSVFLFPPKPKDTLMISRTPEVTCVVVDVSQEDPEVQFNWYVDGVEVHNAKTKPREEQFNSTFRVVSVLTVVHQDWLNGKEYKCKVSNKGLPAPIEKTISKTKGQPREPQVYTLPPSQEEMTKNQVSLTCLVKGFYPSDIAVEWESNGQPENNYKTTPPMLDSDGSFFLYSKLTVDKSRWQEGNVFSCSVMHEALHNHYTQKSLSLSP
light: not shown
notes: IgG2-derived constant region (WT-SKSC with further changes, Gly446 and Lys447 deleted); also called WT-M58/WT-kappa
B2: TOCILIZUMAB-M73 (antibody)
heavy: B1 heavy with N432A
light: not shown
notes: WT-M58 with asparagine 434 (EU) changed to alanine; also called WT-M73/WT-kappa

Target: T1, soluble human FcRn (human, UniProt P55899 24-290; P61769 21-119)
T1 construct: Complex of FcRn and beta 2-microglobulin; the secreted protein lacks them
Test: Biacore, human FcRn

T1 sequence (P55899 24-290 limits assumed, chain 1 of 2): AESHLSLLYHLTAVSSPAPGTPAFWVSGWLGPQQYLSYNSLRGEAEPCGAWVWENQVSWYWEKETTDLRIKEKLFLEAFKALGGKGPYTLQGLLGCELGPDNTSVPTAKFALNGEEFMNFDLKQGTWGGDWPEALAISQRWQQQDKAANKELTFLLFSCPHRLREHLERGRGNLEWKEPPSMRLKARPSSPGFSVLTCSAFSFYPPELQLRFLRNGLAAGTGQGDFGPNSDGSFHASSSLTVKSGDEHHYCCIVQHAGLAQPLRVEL
T1 sequence (P61769 21-119 limits assumed, chain 2 of 2): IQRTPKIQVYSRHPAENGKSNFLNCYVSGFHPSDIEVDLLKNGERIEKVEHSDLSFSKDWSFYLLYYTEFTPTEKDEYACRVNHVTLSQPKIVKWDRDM

| Binder | fold binding against TOCILIZUMAB-IgG1 [times] |
| --- | --- |
| B1 | ~1.4 |
| B2 | ~3.8 |
